# Measured values published in patent US20250320312A1 (OXITOPE PHARMA B V, published 2025).
# Changes are numbered by the printed parent chain.
# T1: Peptide 4: Biotin-AGGGGSGGGGSGGGGSAAA-Tyr-acid (N-terminal biotin; C-terminal acid)
# T1 construct: control peptide without PC
# T1 peptide: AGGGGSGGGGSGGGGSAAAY
# T2: Peptide 8: Biotin-AEAAAKEAAAKEAAAKEAAAKAAA-Tyr-acid (N-terminal biotin; C-terminal acid)
# T2 construct: control peptide without PC
# T2 peptide: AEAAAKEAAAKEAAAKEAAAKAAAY
# B1: PcOxP_DB01_C06 (scFv, V domains shown)
# VH: EVQLLESGGGLVQPGGSLRLSCAASGFEFSDNYMEWVRQAPGKGLEWVAASRNKANDYTTEYADSVKGRFTISRDNSKNTLYLQMNSLRAEDTAVYYCARDYYGSSYWYFDVWGQGTLVTVSS
# VL: DIQMTQSPSSLSASVGDRVTITCTASESLYSSKHKVHYLAWYQQKPGKAPKLLIYGASNRFIGVPSRFSGSGSGTDFTLTISSLQPEDFATYYCAQFYYYPLTFGGGTKVEIK
# notes: scFv in periplasmic extract
# B2: PcOxP_DB02_A12 (scFv, V domains shown)
# VH: B1 VH with E28T, N32D, Y103Q
# VL: B1 VL with S58F, F61Y, I62T, Y99T
# notes: scFv in periplasmic extract
# B3: PcOxP_DB01_G01 (scFv, V domains shown)
# VH: B1 VH with E28T, F29G, N32F, A55G, D57S
# VL: B1 VL with S31G, F61Y, I62S, Y99S
# notes: scFv in periplasmic extract
# B4: PcOxP_DB01_H10 (scFv, V domains shown)
# VH: B1 VH with E28T, N32G, A55N
# VL: B1 VL with F61Y, I62F, Y99Q
# notes: scFv in periplasmic extract
# B5: PcOxP_DB02_A06 (scFv, V domains shown)
# VH: B1 VH with E28T, N32Q
# VL: B1 VL with A57L, F61Y, Y99S
# notes: scFv in periplasmic extract
# B6: PcOxP_DB01_E06 (scFv, V domains shown)
# VH: B1 VH with E28T, N32Q, V112L
# VL: B1 VL with L39V, F61Y
# notes: scFv in periplasmic extract
# B7: PcOxP_DB02_B12 (scFv, V domains shown)
# VH: B1 VH with E28T, N32Y
# VL: B1 VL with A57Q, F61Y, Y99S
# notes: scFv in periplasmic extract
# B8: PcOxP_DB02_C01 (scFv, V domains shown)
# VH: B1 VH with E28T, N32A
# VL: B1 VL with F61Y, Y99S
# notes: scFv in periplasmic extract
# B9: PcOxP_DB01_C08 (scFv, V domains shown)
# VH: B1 VH with E28T, N32G, G104A
# VL: B1 VL with T24R, L29I, Y30S, H34N, F61Y, I62Y, Y99S
# notes: scFv in periplasmic extract
# B10: PcOxP_DB01_H04 (scFv, V domains shown)
# VH: B1 VH with E28A, N32F, S106H
# VL: B1 VL with R60L, F61Q, I62S
# notes: scFv in periplasmic extract
# B11: PcOxP_DB01_F10 (scFv, V domains shown)
# VH: B1 VH with E28T, D31S, N32Y
# VL: B1 VL with R60G, F61Y, Y99T
# notes: scFv in periplasmic extract
# B12: PcOxP_DB02_B06 (scFv, V domains shown)
# VH: B1 VH with E28T
# VL: B1 VL with F61Y, A95T, Y99S
# notes: scFv in periplasmic extract
# B13: PcOxP_DB02_A10 (scFv, V domains shown)
# VH: B1 VH with E28A, N32F
# VL: B1 VL with F61Q, I62S, Y99A
# notes: scFv in periplasmic extract
# B14: PcOxP_DB01_G12 (scFv, V domains shown)
# VH: B1 VH with E28T, N32G
# VL: B1 VL with F61Y, I62F, Y99S
# notes: scFv in periplasmic extract
# B15: PcOxP_DB01_E04 (scFv, V domains shown)
# VH: B1 VH with E28T, N32A, V112T
# VL: B1 VL with F61Y, I62D, Y99S
# notes: scFv in periplasmic extract
# B16: PcOxP_DB01_D09 (scFv, V domains shown)
# VH: B1 VH with E28T, F29E, N32F
# VL: B1 VL with S32A, A57S, F61Y, Y99D
# notes: scFv in periplasmic extract
# B17: PcOxP_DB01_D05 (scFv, V domains shown)
# VH: B1 VH with E28T, N32G, S106P
# VL: B1 VL with F61Y, I62V, Y99S
# notes: scFv in periplasmic extract
# B18: PcOxP_DB01_E11 (scFv, V domains shown)
# VH: B1 VH with E28T, N32F, T59V
# VL: B1 VL with E27F, F61Y, I62P
# notes: scFv in periplasmic extract
# B19: PcOxP_DB02_A09 (scFv, V domains shown)
# VH: B1 VH with E28T, N32T
# VL: B1 VL with F61Q, I62S, Y99W
# notes: scFv in periplasmic extract
# B20: PcOxP_DB01_E05 (scFv, V domains shown)
# VH: B1 VH with E28T, N32Y
# VL: B1 VL with H37N, F61Y, Y99Q
# notes: scFv in periplasmic extract
# B21: PcOxP_DB01_D02 (scFv, V domains shown)
# VH: B1 VH with N32F, N53G, A55G, D57S
# VL: B1 VL with F61Y, A95G, Y99S
# notes: scFv in periplasmic extract
# B22: PcOxP_DB01_F04 (scFv, V domains shown)
# VH: B1 VH with E28T, D31S, N32Y, A55Y
# VL: B1 VL with S58V, F61Y, Y99R
# notes: scFv in periplasmic extract
# B23: PcOxP_DB01_G09 (scFv, V domains shown)
# VH: B1 VH with E28T, N32Y, D57T
# VL: B1 VL with R60L, F61Y, I62S, Y99S
# notes: scFv in periplasmic extract
# B24: PcOxP_DB02_B10 (scFv, V domains shown)
# VH: B1 VH with E28T, F29E, N32F
# VL: B1 VL with F61Y, Y99V
# notes: scFv in periplasmic extract
# B25: PcOxP_DB01_D08 (scFv, V domains shown)
# VH: B1 VH with E28T, N32A, V112S
# VL: B1 VL with F61Y, Y99S
# notes: scFv in periplasmic extract
# B26: PcOxP_DB01_C12 (scFv, V domains shown)
# VH: B1 VH with E28T, N32F, Y62L
# VL: B1 VL with S58A, F61Y, Y99V
# notes: scFv in periplasmic extract
# B27: PcOxP_DB02_B02 (scFv, V domains shown)
# VH: B1 VH with E28T, N32Y, K54S, A55G
# VL: B1 VL with F61L, Y99W
# notes: scFv in periplasmic extract
# B28: PcOxP_DB01_G11 (scFv, V domains shown)
# VH: B1 VH with E28T, N32G, A55N, Y103F
# VL: B1 VL with F61Y, Y99S
# notes: scFv in periplasmic extract
# B29: PcOxP_DB02_A11 (scFv, V domains shown)
# VH: B1 VH with E28T, N32G, K54I
# VL: B1 VL with F61Y, I62H
# notes: scFv in periplasmic extract
# Target: BSA (UniProt P02769)
# Assay: scFv ELISA
# BSA, sequence (P02769 25-607 limits assumed): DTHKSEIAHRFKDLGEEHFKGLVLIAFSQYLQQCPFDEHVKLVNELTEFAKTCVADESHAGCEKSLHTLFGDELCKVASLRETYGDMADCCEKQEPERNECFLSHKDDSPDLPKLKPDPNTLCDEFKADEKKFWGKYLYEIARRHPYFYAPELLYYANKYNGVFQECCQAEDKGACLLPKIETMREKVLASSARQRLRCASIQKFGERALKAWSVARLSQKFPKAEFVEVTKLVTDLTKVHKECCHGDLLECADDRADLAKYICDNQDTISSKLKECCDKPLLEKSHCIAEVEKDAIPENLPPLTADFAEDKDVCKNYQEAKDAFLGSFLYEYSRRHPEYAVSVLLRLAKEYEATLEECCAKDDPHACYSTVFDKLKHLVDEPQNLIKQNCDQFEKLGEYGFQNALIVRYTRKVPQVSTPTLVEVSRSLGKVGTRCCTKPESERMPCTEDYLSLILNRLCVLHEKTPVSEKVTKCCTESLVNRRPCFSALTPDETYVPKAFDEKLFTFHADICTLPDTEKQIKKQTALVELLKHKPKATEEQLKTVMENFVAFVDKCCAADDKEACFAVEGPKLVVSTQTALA
row,OD450,Binder
1,0.08 OD450,B1
2,0.06 OD450,B2
3,0.09 OD450,B3
4,0.08 OD450,B4
5,0.1 OD450,B5
6,0.09 OD450,B6
7,0.1 OD450,B7
8,0.1 OD450,B8
9,0.1 OD450,B9
10,0.11 OD450,B10
11,0.09 OD450,B11
12,0.11 OD450,B12
13,0.11 OD450,B13
14,0.09 OD450,B14
15,0.07 OD450,B15
16,0.07 OD450,B16
17,0.1 OD450,B17
18,0.09 OD450,B18
19,0.11 OD450,B19
20,0.11 OD450,B20
21,0.09 OD450,B21
22,0.09 OD450,B22
23,0.11 OD450,B23
24,0.08 OD450,B24
25,0.08 OD450,B25
26,0.08 OD450,B26
27,0.11 OD450,B27
28,0.09 OD450,B28
29,0.09 OD450,B29

# Target: Peptide 1: Biotin-…-[Tyr(PC)]-acid
# Assay: scFv ELISA
row,OD450,Binder
1,1.18 OD450,B1
2,0.2 OD450,B2
3,0.58 OD450,B3
4,0.6 OD450,B4
5,1.12 OD450,B5
6,0.68 OD450,B6
7,2.33 OD450,B7
8,1.03 OD450,B8
9,0.38 OD450,B9
10,2.01 OD450,B10
11,0.68 OD450,B11
12,0.35 OD450,B12
13,0.42 OD450,B13
14,0.75 OD450,B14
15,0.55 OD450,B15
16,0.27 OD450,B16
17,0.87 OD450,B17
18,0.62 OD450,B18
19,0.98 OD450,B19
20,0.95 OD450,B20
21,0.56 OD450,B21
22,0.36 OD450,B22
23,0.92 OD450,B23
24,0.67 OD450,B24
25,0.58 OD450,B25
26,0.88 OD450,B26
27,0.49 OD450,B27
28,0.99 OD450,B28
29,0.64 OD450,B29

# Target: Peptide 5: Biotin-…-[Tyr(PC)]-acid
# Assay: scFv ELISA
row,OD450,Binder
1,1.31 OD450,B1
2,0.27 OD450,B2
3,1.33 OD450,B3
4,1.39 OD450,B4
5,1.07 OD450,B5
6,1.05 OD450,B6
7,1.34 OD450,B7
8,1.47 OD450,B8
9,0.79 OD450,B9
10,1.92 OD450,B10
11,0.98 OD450,B11
12,0.79 OD450,B12
13,0.9 OD450,B13
14,1.33 OD450,B14
15,1.12 OD450,B15
16,0.66 OD450,B16
17,1.56 OD450,B17
18,0.73 OD450,B18
19,1.3 OD450,B19
20,1.39 OD450,B20
21,1.27 OD450,B21
22,0.57 OD450,B22
23,1.4 OD450,B23
24,1.03 OD450,B24
25,1.08 OD450,B25
26,1.18 OD450,B26
27,0.98 OD450,B27
28,1.32 OD450,B28
29,0.89 OD450,B29

# Target: T1, Peptide 4: …
# Assay: scFv ELISA
# Description: (§1) For ELISA analysis of scFv binding, 96-well polystyrene plates were coated with Peptide 1, 4, 5, 8 or 100 μL BSA (10 μg/mL) in PBS at 4° C. overnight. Plates were washed three times with PBS-Tween and blocked with 100 μL 1% BSA-TBS for 1 hour at room temperature. 96-well streptavidin coated plates were coated with 100 μL biotinylated PC-peptides (1 μg/mL) in PBS for 1 hour at room temperature.
# (§2) All plates were washed three times with PBS-Tween before 40 μL aliquots of PPE were added to assay plates along with 50 μL 10% BSA, and plates were incubated for 1 hour at room temperature. After washing, […] HRP conjugated anti-V5 in 5% BSA was added, and plates were incubated at room temperature for 30 mins. Plates were washed and 100 μL TMB substrate was added. Color was left to develop at room temperature before the reaction was stopped with 100 μL 1N HCl. The amount of scFv bound to each well was quantitated from absorbance measurement at 450 nm (OD450).
row,OD450,Binder
1,0.05 OD450,B1
2,0.05 OD450,B2
3,0.06 OD450,B3
4,0.06 OD450,B4
5,0.05 OD450,B5
6,0.05 OD450,B6
7,0.05 OD450,B7
8,0.06 OD450,B8
9,0.06 OD450,B9
10,0.07 OD450,B10
11,0.05 OD450,B11
12,0.07 OD450,B12
13,0.05 OD450,B13
14,0.07 OD450,B14
15,0.05 OD450,B15
16,0.05 OD450,B16
17,0.06 OD450,B17
18,0.05 OD450,B18
19,0.05 OD450,B19
20,0.06 OD450,B20
21,0.05 OD450,B21
22,0.05 OD450,B22
23,0.06 OD450,B23
24,0.04 OD450,B24
25,0.05 OD450,B25
26,0.05 OD450,B26
27,0.05 OD450,B27
28,0.06 OD450,B28
29,0.04 OD450,B29

# Target: T2, Peptide 8: …
# Assay: scFv ELISA
# Description: as §1, §2
row,OD450,Binder
1,0.05 OD450,B1
2,0.06 OD450,B2
3,0.05 OD450,B3
4,0.06 OD450,B4
5,0.05 OD450,B5
6,0.05 OD450,B6
7,0.04 OD450,B7
8,0.05 OD450,B8
9,0.05 OD450,B9
10,0.07 OD450,B10
11,0.05 OD450,B11
12,0.04 OD450,B12
13,0.04 OD450,B13
14,0.06 OD450,B14
15,0.04 OD450,B15
16,0.05 OD450,B16
17,0.05 OD450,B17
18,0.06 OD450,B18
19,0.04 OD450,B19
20,0.06 OD450,B20
21,0.05 OD450,B21
22,0.05 OD450,B22
23,0.05 OD450,B23
24,0.04 OD450,B24
25,0.05 OD450,B25
26,0.05 OD450,B26
27,0.05 OD450,B27
28,0.06 OD450,B28
29,0.04 OD450,B29
